Measurements taken from patent US10155025B2, “Method for inhibiting or reducing transplant rejection by adminstration of interleukin-34” (INSERM (INSTITUT NATIONAL DE LA SANTÉ ET DE LA RECHERCHE …, priority 2014, dated 2018).

System: CD4+CD25- T cells stimulated with allogeneic pDCs
Test: MLR: suppression of CFSE-labelled CD4+CD25- T cell proliferation in response to allogeneic pDCs
Assay type: cell-based, rat
Settings: dose dependent, 0.1 to 2 μg/ml, 6 days of culture
Procedure: FIG. 3: Detection of IL-34 using an AAV-IL-34 and inhibition of allo-T cell responses. A. Supernatants of AAV-IL-34 or AAV-GFP-transduced cells were tested for suppression of CD4^+CD25^− T cell proliferation in response to allogeneic pDCs and analysed by flow cytometry for CFSE dilution after 5 days of culture. CD8^+ Tregs were used as positive control of suppression. n=3 in duplicates; Results are expressed as mean±SEM of normalized percentage of proliferation vs. proliferation in the absence of CD8^+ Tregs (100%). […] B. Serial dilution of sera from AAV-IL-34 or AAV-GFP-treated rats or naive animals were tested for suppression of CD4^+CD25^− T cell proliferation in response to allogeneic pDCs and analysed by flow cytometry for CFSE dilution after 5 days of culture. CD8^+ Tregs were used as positive control of suppression. n=3 in duplicates; Results are expressed as mean±SEM of normalized percentage of proliferation vs. proliferation in the absence of CD8^+ Tregs (100%). *, p<0.01; **, p<0.001; ***, p<0.0001 vs. sera from naïve animals.
FIG. 6: M-CSF mediated dose dependent suppression of anti-donor effector CD4^÷CD25^− T cells responses. (A) FACS Aria-sorted CD8^+CD45RC^low Tregs from spleen of naive or 120 days old AdCD40Ig-treated recipients (n=6) were analysed for M-CSF mRNA expression by quantitative RT-PCR. *p<0.05. […]

B1: M-CSF: M-CSF protein (ab56288, ABCAM), macrophage colony stimulating factor (protein, UniProt Q8JZQ0 33-566, looked up)
Macrophage colony-stimulating …: EVSEHCSHMIGNGHLQILQQLIDSQMETACLIEYKFVDQEQLDDPVCYLKKAFVLVQVIIEETMRFKDNTPNANATERLQELSMKLNSCFIKDYKEQNEACVQTYKESPLRLLEKIKNFFNETKNFLEKDWNIFSKNCNDSFAKCSSRDVVTKPDCNCLYPKATPSSDLASASPHQPPAPSMAPLADLAWDDSQRTEGSSLLPSDLPLRIEDPGSAKQRPPRSTCQTLESTEQPNHEDPQPHPSAGAPIPGVEDIIESSMGTNWVLEEASGEASEGFLTQERKFSPSNPVGGSIQAETDRPWARSASSPFPKLTEDQQPTNITDTPLTEVNPMRPTGQTLNNTPEKTDGSSTLREDQQEPRSPHFATLNPQRVGNSATPYAKLLPPKSHSWGIVLPLGELEGKKSTRDRRSPAELKGGPASEGAARPVAQSTRDRRSPAELKGGPASEGAARPVARFNSIPLTDTGSSIQDPQTSAFVFWVLGIILVLLAVGGLLFYSWKRRSHRDPRTLDSSVGRPEGSSLAQDEDRQVELPV
For B1, the “suppression of CD4+CD25- T cells proliferation” value was “up to 93.5%”.
